Measured values from article PMC6549140, “ATP hydrolysis by KaiC promotes its KaiA binding in the cyanobacterial circadian clock system” (Life Science Alliance, 2019).
Where “and” joins values, the source holds several entries; their conditions need not be identical. Equal entries are not always repeated. One block for each molecule: values may come before it.

What was measured:
[1] = target: KaiC_(AA/E77Q) (KaiCAA with the catalytic glutamate Glu77 of the CI ATPase domain substituted by glutamine), hexamer (T. elongatus BP-1) (UniProt Q79V60); assay: native MS; KaiC mutant (20 uM) alone, hexamerised with 1 mM ATP, 5 h at 37°C, exchanged into 150 mM ammonium acetate pH 6.8, nanoflow ESI
[2] = target: CI domain (M1–S253) of KaiCAA, tryptic fragment, hexamer (T. elongatus BP-1); assay: native MS; KaiCAA hexamer (1 mM ATP, 5 h, 37°C) exchanged into 150 mM ammonium acetate and digested with 0.02 mg/ml trypsin for 0, 30 and 60 min, analysed directly
[3] = target: KaiCAA (KaiC with Ser431 and Thr432 both substituted with alanine), hexamer (T. elongatus BP-1) (UniProt Q79V60); assay: native MS; KaiC mutant (20 uM) alone, hexamerised with 1 mM AMPPNP, 5 h at 37°C, exchanged into 150 mM ammonium acetate pH 6.8, nanoflow ESI
[4] = target: KaiCAA (KaiC with Ser431 and Thr432 both substituted with alanine), hexamer (T. elongatus BP-1) (UniProt Q79V60); assay: native MS; KaiC mutant (20 uM) alone, hexamerised with 1 mM ATP, 5 h at 37°C, exchanged into 150 mM ammonium acetate pH 6.8, nanoflow ESI
[5] = target: T1, CI hexamer (hexameric CI domain M1–S253) (Thermosynechococcus vestitus, UniProt Q79V60); assay: native mass spectrometry after trypsin digestion; type: binding; conditions: KaiCAA incubated with 1 mM ATP, 37°C, 5 h; 150 mM ammonium acetate; 0.02 mg/ml trypsin up to 60 min
T1 construct: gene kaiC; CI domain M1-S253 made by trypsin digestion of KaiCAA (the S431A/T432A sites lie outside), hexamer
T1 sequence (Q79V60 1-253): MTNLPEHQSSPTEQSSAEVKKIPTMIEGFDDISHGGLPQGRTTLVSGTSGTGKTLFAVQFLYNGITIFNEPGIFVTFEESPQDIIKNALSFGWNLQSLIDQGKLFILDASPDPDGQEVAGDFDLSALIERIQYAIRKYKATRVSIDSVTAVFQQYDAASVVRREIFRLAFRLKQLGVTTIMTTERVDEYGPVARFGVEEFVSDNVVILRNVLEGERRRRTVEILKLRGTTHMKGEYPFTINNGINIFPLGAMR

[6] = target: KaiCDD (KaiC with Ser431 and Thr432 both substituted with aspartate), hexamer (T. elongatus BP-1) (UniProt Q79V60); assay: native MS; KaiC mutant (20 uM) alone, hexamerised with 1 mM AMPPNP, 5 h at 37°C, exchanged into 150 mM ammonium acetate pH 6.8, nanoflow ESI
[7] = target: KaiCDD (KaiC with Ser431 and Thr432 both substituted with aspartate), hexamer (T. elongatus BP-1) (UniProt Q79V60); assay: native MS; KaiC mutant (20 uM) alone, hexamerised with 1 mM ATP, 5 h at 37°C, exchanged into 150 mM ammonium acetate pH 6.8, nanoflow ESI
[8] = target: KaiCAA (KaiC with Ser431 and Thr432 both substituted with alanine), hexamer (T. elongatus BP-1) (UniProt Q79V60); assay: native MS; 6:3 mixture of KaiC mutant (20 uM) and KaiA (10 uM), 1 mM AMPPNP, 5 h at 37°C, 150 mM ammonium acetate pH 6.8, nanoflow ESI
[9] = target: KaiCDD (KaiC with Ser431 and Thr432 both substituted with aspartate), hexamer (T. elongatus BP-1) (UniProt Q79V60); assay: as above
[10] = target: KaiCAA (KaiC with Ser431 and Thr432 both substituted with alanine), hexamer (T. elongatus BP-1) (UniProt Q79V60); assay: native MS; 6:3 mixture of KaiC mutant (20 uM) and KaiA (10 uM), 1 mM ATP, 5 h at 37°C, 150 mM ammonium acetate pH 6.8, nanoflow ESI
[11] = target: KaiCDD (KaiC with Ser431 and Thr432 both substituted with aspartate), hexamer (T. elongatus BP-1) (UniProt Q79V60); assay: as above
[12] = target: KaiC_(AA/E77Q) (KaiCAA with the catalytic glutamate Glu77 of the CI ATPase domain substituted by glutamine), hexamer (T. elongatus BP-1) (UniProt Q79V60); assay: as above
[13] = target: KaiCAA (KaiC with Ser431 and Thr432 both substituted with alanine), hexamer (T. elongatus BP-1) (UniProt Q79V60); assay: native MS; 6:1, 6:3, 6:6 and 6:9 mixtures of KaiCAA and KaiA (up to excess KaiA), 1 mM ATP, 5 h at 37°C, nanoflow ESI

Molecule: KaiC_(AA/E77Q) (KaiCAA with the catalytic glutamate Glu77 of the CI ATPase domain substituted by glutamine), hexamer (from UniProt Q79V60 1-518) (natural protein)
stoichiometry N (subunits in the oligomer) [1]: 6

Molecule: Nc1ncnc2c1ncn2[C@@H]1O[C@H](COP(=O)(O)OP(=O)(O)OP(=O)(O)O)[C@@H](O)[C@H]1O [ATP]
native mass spectrometry after trypsin digestion [5]: the hexameric CI domain (M1–S253) containing six ATP molecules

Molecule: KaiCDD (KaiC with Ser431 and Thr432 both substituted with aspartate), hexamer (from UniProt Q79V60 1-518) (natural protein)
stoichiometry N (subunits in the oligomer) [6]: 6
stoichiometry N (subunits in the oligomer) [7]: 6

Continued, values first:

stoichiometry N (subunits in the oligomer) [2]: 6
Molecule: CI domain (M1–S253) of KaiCAA, tryptic fragment, hexamer (domain or fragment)

stoichiometry N (subunits in the oligomer) [3]: 6
stoichiometry N (subunits in the oligomer) [4]: 6
Molecule: KaiCAA (KaiC with Ser431 and Thr432 both substituted with alanine), hexamer (from UniProt Q79V60 1-518) (natural protein)

stoichiometry N (KaiA molecules per KaiC hexamer) [8]: 2
stoichiometry N (KaiA molecules per KaiC hexamer) [9]: 2
stoichiometry N (KaiA molecules per KaiC hexamer) [10]: 2
stoichiometry N (KaiA molecules per KaiC hexamer) [11]: 2
stoichiometry N (KaiA molecules per KaiC hexamer) [12]: 2
stoichiometry N (KaiA molecules per KaiC hexamer) [13]: 2 and 4
B1: KaiA (natural protein)
chain: MAQSTALTICGLVYSPAIGQELVRLHTSDIDELVYFSSEREFCNYLEARRNSIACLILEWGEGTPQIITYLHHSATLLPAILIFPAAPAPPPAGPHYHIAEVILTTDQLDQLNRQIEEAITGFVKLCPGCAVPPHVLFRLPALKESSNVDPQHRLSQKLKERLGYLGVYYKRDTAFFFRRMSPADKRKLLDELRSIYRTIVLEYFNTDAKVNERIDEFVSKAFFADISVSQVLEIHVELMDTFSKQLKLEGRSEDILLDYRLTLIDVIAHLCEMYRRSIPREV
